Where only a bound is given, the exact number is not on record here.

The results in this text go back to paper PMC9260506, “Identification of Highly Cross-Reactive Mimotopes for a Public T Cell Response in Murine Melanoma” (Frontiers in Immunology, 2022).

Experiment [1] deals with 7PPG2 TCR, recombinant soluble (mouse) (UniProt P01849). Description: SPR. Particulars: peptide-MHC.
Experiment [2] deals with 7PPG4 TCR, recombinant soluble (mouse) (UniProt P01849). Nature of the experiment: SPR. Particulars: peptide-MHC.

With “7PPG2-mim6 mimotope () presented by H-2K^b, refolded pMHC (from UniProt P61769 21-119)”, the Kd in experiment [1] was 19 µM; in experiment [2] it was more than 100 µM.
